B1: TPR t1 (parent)
chain: GACCAAUCUGCCCUCAGAGCUCGAGAACAUCUUCGGAUGCAGAGGAGGCAGGCUUCGGUGGCGCGAUAGCGCCAACGUCCUCAACCUCCAAUGCAUCCCACCACAUGAUGAUGCCUGAAGAGCCUUGGUUUUUUG

Variants of: B1
Test: polymerase ribozyme fitness, log enrichment relative to wild type (log ratio); higher = more active; in vitro selection for triplet polymerase activity
In short: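 A heterodimeric triplet polymerase ribozyme had each of its subunits mutagenized by PCR into a library, which was transcribed. One round of in vitro selection, done in triplicate, annealed each library with a biotinylated primer, its partner subunit and triplets, then incubated it frozen at −7 °C before gel excision of extended constructs, streptavidin-bead capture and RT-PCR. Fitness is the logarithm of genotype enrichment relative to wild-type enrichment, based on Illumina sequencing of inputs and outputs and inverse-variance-weighted replicate averages. A base-2 logarithm is used, and genotypes were kept only with ≥10 input reads and ≥1 read per output.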

Row | Variant | polymerase ribozyme fitness (log ratio)
1 | A29U U109G G122A | -1.47
2 | C31U A68G | -6.34
3 | C31U C85G | -5.19
4 | A29G G63C C104U U106G | -1.63
5 | A29G G60U A84C C94U U106A G120A U125G | -0.963
6 | C28A G48U C53U G57C G60A U106C | -5.56
7 | U30A C73A | -5.19
8 | C28A C76G G120A | -4.53
9 | A29G A95G | -1.84
10 | C28U G44U C62U G63C G110C U126A U132C | -4.61
11 | C28U C62A | -2.73
12 | A27G G45C G63A C104A U131C | -6.14
13 | A27U G44U C101G A111C | -7.22
14 | A27U C49G U54C | -3.58
15 | C28U U106A | -0.471
16 | U30A U112C | -2.73
17 | A29U C56G G58C G77A C88U G120C C123G U129A | -5.14
18 | A27U G47A U125G | -2.83
19 | C31G C62U C114G G127U | -6.54
20 | A27U G60U C82A U125G | -3.48
21 | C28A G135U | -4.58

Row | Variant | polymerase ribozyme fitness (log ratio)
22 | A27U C97U U112A | -3.08
23 | A27U C49G G51U C79G | -6.98
24 | C31U C82U | -5.12
25 | A27U C76U | -3.39
26 | A29U G71A G135C | -2.1
27 | C31A G69U | -2.98
28 | A29G C101A A118U | -3.6
29 | U30C G69A | -4.88
30 | C28A G61A G93A C123A | -3.78
31 | A29G C102A | -4.16
32 | A27U G61U C102U U109G | -5.55
33 | C28G A83G U130C | -4.34
34 | A27G G135U | -2.21
35 | C28U C31A C85G A119G G120A | -7.42
36 | A29U A43C G44U C53G A111U U134A | -0.68
37 | C31G C94G G113A | -5.38
38 | A27G U112A | 1.03
39 | C28G U54A G122U | -2.85
40 | A29G G69A A75U C104U U112G | -4.35
41 | C31A G45U C115G | -6.15
42 | C28A G61U G120A | -3.5

Row | Variant | polymerase ribozyme fitness (log ratio)
43 | C28U C80U A90G C124G | -0.852
44 | A29G A43C | -3.7
45 | C31G C123U | -7.18
46 | C28A C88G G120A | -3.89
47 | C28A G63A | -5.86
48 | A27U C56U | -3.04
49 | C31U C86A | -5.09
50 | A29U C88U | -1.36
51 | A27U C31G G69U C79G G120C U130G U132A | -6.29
52 | C28U G71U | -2.6
53 | A29U G51C G120U | -3.96
54 | C31G G39U C72A U106A G120U | -6.88
55 | U30C G61C C72U A95U | -4
56 | U30C C62U U78C | -3.36
57 | A27U A50U | -4.65
58 | A29C A75G U78G | -2.56
59 | A27U C104U A111C G120C | -6.95
60 | A29U A84C U87C U112C | -0.813
61 | C31U C88G | -6.51
62 | A29G G63A | -1.9
63 | A27U C72U A83U G127A | -4.42

Row | Variant | polymerase ribozyme fitness (log ratio)
64 | C28U C49A C72A C114G | -5.7
65 | A29G C56U | -1.17
66 | C31A A121U | -3.46
67 | A27U U55G C56A G61A C62G U112C G120U G128A U130C | -7.21
68 | C28U U112C U116A | -1.82
69 | A27U A118G | -3.19
70 | A29G A37G C40U G61C G127U | -4.48
71 | C31A C73G | -5.21
72 | A27U G39U | -4.25
73 | A27U G39C | -3.26
74 | A27U C62U G117U C123G | -5.03
75 | A29G C101G | -4.66
76 | C28U G45U C114U | -4.18
77 | C31U C79G C124G | -5.57
78 | C31A G61A C88U | -5.76
79 | A27G C89A U92A C98A A111C | -6.08
80 | A27U G117U C123G | -4.27
81 | A29G C64U C104A U106A U112C | -0.729
82 | C28A U54C U106C | -5.05
83 | C28A C89U U112A | -1.62
